Measurements reported in article PMC9825591.

How the values were obtained:
[1] = biological target: EPYC1-GFP (Chlamydomonas reinhardtii); test: fluorescence correlation spectroscopy (FCS); 10 nM EPYC1-GFP with varying concentrations of unlabeled Rubisco in solution, one-phase region (no condensates); 20 mM Tris-HCl, 50 mM NaCl, pH 8.0; PEI-g-PEG coated coverslip; EPYC1-GFP diffusion coefficient against Rubisco concentration fitted with a quadratic binding equation; the authors consider the Kd an upper bound
[2] = biological target: EPYC1-GFP (Chlamydomonas reinhardtii); test: fluorescence correlation spectroscopy (FCS); dilute phase of a phase-separated mixture, alongside condensates: EPYC1-GFP fixed at 20 nM, unlabeled EPYC1 1 to 4 μM, Rubisco 0.05 to 2 μM; laser aimed at a region away from condensates

- Kd [1]: 0.029 µM
- Rubisco holoenzymes per EPYC1-Rubisco complex [1]: 1
- Rubisco holoenzymes per EPYC1-Rubisco complex [2]: 1
Substance: Ribulose-1,5-bisphosphate carboxylase/oxygenase (Rubisco) holoenzyme, wildtype (from UniProt P00877 3-475; P00873 46-185) (complex)
